Results published in ChEMBL document CHEMBL1123179, “4-Amino-2-(substituted methyl)-2-butenoic acids: substrates and potent inhibitors of gamma-aminobutyric acid aminotransferase” (J Med Chem, 1986).

What was measured:
Conditions in all cases: Sus scrofa
NC/C=C(\CO)C(=O)O [1] = assay: Compound was tested for the inhibitory effect against Gamma-amino-N-butyrate transaminase from pig brain, activity expressed as Vmax
NC/C=C(\CF)C(=O)O = assay: (§1) Compound was tested for the inhibitory effect against Gamma-amino-N-butyrate transaminase from pig brain, activity expressed as Km
NC/C=C(\CO)C(=O)O [2] = assay: as §1

Sequence of 4-aminobutyrate aminotransferase, mitochondrial (Sus scrofa), P80147 (P80147 whole entry): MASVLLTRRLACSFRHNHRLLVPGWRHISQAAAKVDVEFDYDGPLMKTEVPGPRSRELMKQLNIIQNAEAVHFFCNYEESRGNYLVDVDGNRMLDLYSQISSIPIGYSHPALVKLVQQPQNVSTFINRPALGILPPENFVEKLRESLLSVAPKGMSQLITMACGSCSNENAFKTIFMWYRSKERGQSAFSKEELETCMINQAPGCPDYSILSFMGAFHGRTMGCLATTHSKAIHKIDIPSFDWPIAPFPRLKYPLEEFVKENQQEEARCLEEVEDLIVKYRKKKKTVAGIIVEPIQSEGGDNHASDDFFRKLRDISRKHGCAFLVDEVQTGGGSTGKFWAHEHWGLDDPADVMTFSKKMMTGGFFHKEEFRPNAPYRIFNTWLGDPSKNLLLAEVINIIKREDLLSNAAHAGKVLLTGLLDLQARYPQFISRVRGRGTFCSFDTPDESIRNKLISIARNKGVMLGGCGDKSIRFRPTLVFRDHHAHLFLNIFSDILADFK

Substance: 4-aminobutyrate aminotransferase, mitochondrial (Sus scrofa), P80147
- Vmax (NC/C=C(\CO)C(=O)O [1]): 0.012 µM/min/mg
- Km (NC/C=C(\CF)C(=O)O): 140 µM
- Km (NC/C=C(\CO)C(=O)O [2]): 10 µM
